Data: patent US20120189542A1 (published 2012)

Target: T1, human CD19 on CD19+ human lymphoma cells (Raji, Daudi, Ramos) (human, UniProt P15391 20-556)
T1 construct: whole, on cells; The target is presented on cells; also called CD19 antigen; CD19 molecule
T1 sequence (looked up): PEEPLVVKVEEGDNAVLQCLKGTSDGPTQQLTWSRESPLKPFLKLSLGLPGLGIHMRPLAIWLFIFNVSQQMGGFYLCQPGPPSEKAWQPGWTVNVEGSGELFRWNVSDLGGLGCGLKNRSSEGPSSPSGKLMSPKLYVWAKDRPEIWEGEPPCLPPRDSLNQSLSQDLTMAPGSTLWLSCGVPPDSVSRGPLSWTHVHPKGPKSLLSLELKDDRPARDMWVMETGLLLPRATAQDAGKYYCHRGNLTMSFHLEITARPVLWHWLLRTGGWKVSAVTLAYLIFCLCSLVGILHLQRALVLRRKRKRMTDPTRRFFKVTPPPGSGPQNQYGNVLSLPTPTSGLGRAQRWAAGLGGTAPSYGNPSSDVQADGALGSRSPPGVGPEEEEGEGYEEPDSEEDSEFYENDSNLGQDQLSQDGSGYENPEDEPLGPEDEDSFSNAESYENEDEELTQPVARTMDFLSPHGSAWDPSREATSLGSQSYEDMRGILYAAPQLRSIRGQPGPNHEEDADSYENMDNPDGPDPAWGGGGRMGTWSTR
Assay: direct cell surface binding of 125I-labeled antibody to Raji cells, Scatchard plot analysis

B1: humanized anti-CD19 antibody hA19 (antibody, V domains shown)
VH: QVQLQQSGAEVKKPGSSVKVSCKASGYAFSSYWMNWVRQRPGQGLEWIGQIWPGDGDTNYNGKFKGRATITADESTNTAYMELSSLRSEDTAFYSCARRETTTVGRYYYAMDYWGQGTTVTVSS
VL: DIQLTQSPSSLSASVGDRVTITCKASQSVDYDGDSYLNWYQQIPGKAPKLLIYDASNLVSGIPPRFSGSGSGTDYTFTISSLQPEDIATYHCQQSTEDPWTFGGGTKLQIKR
notes: It was expressed from pdHL2, which carries human IgG heavy and light chain constant regions (IgG1 per the general description); also called humanized A19 antibody
B1 gave a Kd of 1.1 nM.
